± gives the uncertainty stated by the source.
Assay: self-splicing fitness, log relative to wild type (ln ratio); higher = more splicing; Tetrahymena group I intron in knt gene, E. coli kanamycin selection, DiMSum; sequences stand for … in CUCUCU…GGAGGGAAAAGUUAUCAGGCAUGCACCUGGUAGCUAGUCUUUAAACCAAUAGAUUGCAUCGGUUUAAAAGGCAAGACCGUCAAAUUGCGGGAAAGGGGUCAACAGCCGUUCAGUACCAAGUCUCAGGGGAAACUUUGAGAUGGCCUUGCAAAGGGUAUGGUAAUAAGCUGACGGACAUGGUCCUAACCACGCAGCCAAGUCCUAAGUCAACAGAUCUUCUGUUGAUAUGGAUGCAGUUCACAGACUAAAUGUCGGUCGGGGAAGAUGUAUUCUUCUCAUAAGAUAUAGUCGGACCUCUCCUUAAUGGGAGCUAGCGGAUGAAGUGAUGCAACACUGGAGCCGCUGGGAACUAAUUUGUAUGCGAAAGUAUAUUGAUUAGUUUUGGAGUACUCGUGGUCG
Summary of the method: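 DiMSum derived fitness as the error-weighted combination of fold changes across replicates, kanamycin versus no kanamycin, normalised to wild type. E. coli BL21(DE3) held the library, which randomised all eight P1ex-region intron nucleotides within the knt kanamycin-resistance gene on pET-22b(+). Six replicate transformations grew overnight at 37°C or 30°C on LB agar with or without 25 μg/mL kanamycin, also containing 100 μg/mL carbenicillin, 50 μM IPTG and 0.2% rhamnose, and pooled colonies were amplicon-sequenced on an Illumina HiSeq 2500.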

ACUUAGCAAUAUUACGGCAC
self-splicing fitness (ln) (30 °C): -1.79 ± 0.11 | self-splicing fitness (ln) (37 °C): -1.07 ± 0.14

GGCUAGCAAUAUUACGUAAA
self-splicing fitness (ln) (30 °C): -0.62 ± 0.084 | self-splicing fitness (ln) (37 °C): -0.198 ± 0.1

UAACAGCAAUAUUACGCUAG
self-splicing fitness (ln) (30 °C): -1.81 ± 0.071 | self-splicing fitness (ln) (37 °C): -0.992 ± 0.08

AGCGAGCAAUAUUACGAGUA
self-splicing fitness (ln) (30 °C): -1.68 ± 0.26 | self-splicing fitness (ln) (37 °C): -1.18 ± 0.29

UCCUAGCAAUAUUACGUCUA
self-splicing fitness (ln) (37 °C): -2.69 ± 0.38

CCCUAGCAAUAUUACGGAUG
self-splicing fitness (ln) (30 °C): -3.17 ± 0.15 | self-splicing fitness (ln) (37 °C): -1.53 ± 0.11

CCUGAGCAAUAUUACGAAGC
self-splicing fitness (ln) (30 °C): -2.38 ± 0.14 | self-splicing fitness (ln) (37 °C): -2.58 ± 0.3

UACAAGCAAUAUUACGGAUG
self-splicing fitness (ln) (30 °C): -1.16 ± 0.078 | self-splicing fitness (ln) (37 °C): -0.694 ± 0.11

AUUCAGCAAUAUUACGCUAA
self-splicing fitness (ln) (30 °C): -0.96 ± 0.094 | self-splicing fitness (ln) (37 °C): -0.0329 ± 0.1

GAAAAGCAAUAUUACGAUUA
self-splicing fitness (ln) (30 °C): -0.531 ± 0.07 | self-splicing fitness (ln) (37 °C): -0.0202 ± 0.076

UCUCAGCAAUAUUACGCCCA
self-splicing fitness (ln) (30 °C): -0.778 ± 0.12 | self-splicing fitness (ln) (37 °C): -1.88 ± 0.18

CUCGAGCAAUAUUACGUUAU
self-splicing fitness (ln) (30 °C): -3.99 ± 0.36 | self-splicing fitness (ln) (37 °C): -2.72 ± 0.3

UCGCAGCAAUAUUACGUGAA
self-splicing fitness (ln) (30 °C): -1.32 ± 0.078 | self-splicing fitness (ln) (37 °C): -0.713 ± 0.086

GUCAAGCAAUAUUACGACCG
self-splicing fitness (ln) (30 °C): -3.14 ± 0.42

CGGCAGCAAUAUUACGUCUG
self-splicing fitness (ln) (30 °C): -2.32 ± 0.21 | self-splicing fitness (ln) (37 °C): -1.86 ± 0.19

CCGGAGCAAUAUUACGGCGG
self-splicing fitness (ln) (30 °C): -1.49 ± 0.15 | self-splicing fitness (ln) (37 °C): -2.15 ± 0.34

UCUUAGCAAUAUUACGAUAU
self-splicing fitness (ln) (37 °C): -1.78 ± 0.38

AGUUAGCAAUAUUACGCAGG
self-splicing fitness (ln) (30 °C): -2.31 ± 0.3 | self-splicing fitness (ln) (37 °C): -0.586 ± 0.29

UCGAAGCAAUAUUACGGGCG
self-splicing fitness (ln) (30 °C): 0.0324 ± 0.093 | self-splicing fitness (ln) (37 °C): -0.219 ± 0.1

GAACAGCAAUAUUACGCGUG
self-splicing fitness (ln) (30 °C): -0.931 ± 0.053 | self-splicing fitness (ln) (37 °C): -0.34 ± 0.059

CAUGAGCAAUAUUACGUCGA
self-splicing fitness (ln) (30 °C): -2.57 ± 0.33

UAGAAGCAAUAUUACGCACU
self-splicing fitness (ln) (30 °C): -0.642 ± 0.15 | self-splicing fitness (ln) (37 °C): -0.846 ± 0.17

CUCUAGCAAUAUUACGGUCG
self-splicing fitness (ln) (30 °C): -1.51 ± 0.14 | self-splicing fitness (ln) (37 °C): -0.933 ± 0.14

AUCGAGCAAUAUUACGUACG
self-splicing fitness (ln) (37 °C): -2.07 ± 0.27

CAUGAGCAAUAUUACGUCUU
self-splicing fitness (ln) (30 °C): -4.56 ± 0.34 | self-splicing fitness (ln) (37 °C): -2.53 ± 0.25

ACGUAGCAAUAUUACGGACG
self-splicing fitness (ln) (30 °C): -1.88 ± 0.17 | self-splicing fitness (ln) (37 °C): -0.579 ± 0.13

UCUGAGCAAUAUUACGACGG
self-splicing fitness (ln) (30 °C): -1.18 ± 0.11 | self-splicing fitness (ln) (37 °C): -0.451 ± 0.12

AGACAGCAAUAUUACGACCA
self-splicing fitness (ln) (30 °C): -0.623 ± 0.11 | self-splicing fitness (ln) (37 °C): -0.823 ± 0.13

GAGCAGCAAUAUUACGAUUU
self-splicing fitness (ln) (30 °C): -0.179 ± 0.068 | self-splicing fitness (ln) (37 °C): -0.211 ± 0.094

AGUUAGCAAUAUUACGGACA
self-splicing fitness (ln) (30 °C): -0.912 ± 0.12 | self-splicing fitness (ln) (37 °C): 0.372 ± 0.13

UAGUAGCAAUAUUACGUGAG
self-splicing fitness (ln) (30 °C): -1.3 ± 0.074 | self-splicing fitness (ln) (37 °C): -1.87 ± 0.12

CGAAAGCAAUAUUACGAGGU
self-splicing fitness (ln) (37 °C): -1.64 ± 0.3

AUAUAGCAAUAUUACGCUUC
self-splicing fitness (ln) (30 °C): -2.84 ± 0.38 | self-splicing fitness (ln) (37 °C): -2.86 ± 0.43

GCAUAGCAAUAUUACGAGUG
self-splicing fitness (ln) (30 °C): -2.77 ± 0.14 | self-splicing fitness (ln) (37 °C): -1.76 ± 0.11

GACUAGCAAUAUUACGGCAA
self-splicing fitness (ln) (30 °C): -0.738 ± 0.08 | self-splicing fitness (ln) (37 °C): -0.302 ± 0.09

— the supplement of paper PMC7877785
